Test results: patent publication US20170204174A1 (published 2017)
Positions count from the first letter of the chain named.

How the values were obtained:
[1] = biological target: recombinant mature human GDF-15 protein (SEQ ID No: 8) (human) (UniProt Q99988); experiment: Surface Acoustic Wave (SAW) gold chip biosensor
[2] = biological target: T1, recombinant mature human GDF-15 protein (SEQ ID No: 8) (human, UniProt Q99988 197-308); experiment: Surface Acoustic Wave (SAW) gold chip biosensor
T1 construct: also called recombinant human GDF-15; recombinant GDF-15
T1 sequence: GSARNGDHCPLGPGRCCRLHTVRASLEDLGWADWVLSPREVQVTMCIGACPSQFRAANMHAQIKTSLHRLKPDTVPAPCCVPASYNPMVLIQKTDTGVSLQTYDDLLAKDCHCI

[3] = biological target: T1, recombinant mature human GDF-15 protein …; experiment: SPR (ProteOn XPR36), KD=koff/kon, insect-cell GDF-15 immobilised
Description: (§1) For preparing the biosensors recombinant mature human GDF-15 protein was immobilized on flow cells 1 and 2. On one flow cell recombinant GDF-15 derived from Baculvirus-transfected insect cells (HighFive insect cells) and on the other recombinant protein derived from expression in E. coli was used. The GLC sensor chip was activated using Sulfo-NHS (N-Hydroxysulfosuccinimide) and EDC (1-Ethyl-3-[3-dimethylaminopropyl]carbodiimide hydrochloride) (Bio-Rae ProteOn™ Amine Coupling Kit) according to the manufacturer's recommendation, the sensor surface was subsequently loaded with the proteins up to a density of about 600 RU (1 Ru=1 pg mm⁻²). The non-reacted coupling groups were then quenched by perfusion with 1M ethanolamine pH 8.5 and the biosensor was equilibrated by perfusing the chip with running buffer ([…], 150 mM NaCl, 3.4 mM EDTA, 0.005% Tween®20, pH 7.4, referred to as HBS150). As controls two flow cells were used, one empty with no protein coupled and one coupled with an non-physiological protein partner (human Interleukin-5), which was immobilized using the same coupling chemistry and the same coupling density. […] The resulting sensogram was analyzed using the software ProteOn Manager version 3.0. […]

[4] = biological target: T2, recombinant mature human GDF-15 protein derived from expression in E. coli (human, UniProt Q99988 195-308); experiment: SPR (ProteOn XPR36), E. coli GDF-15 immobilised, antibody as analyte
T2 construct: mature; also called GDF-15 derived from E. coli expression
T2 sequence (looked up): T1 sequence with G1A, S2R
Description: as §1

[5] = biological target: T1, recombinant mature human GDF-15 protein …; experiment: SPR (ProteOn XPR36), insect-cell GDF-15 immobilised, antibody as analyte, 1:1 Langmuir, 25° C.
Description: as §1

human Interleukin-5 = human Interleukin-5 (human, UniProt P05113 20-134); experiment: SPR (ProteOn XPR36), IL-5 immobilised, antibody as analyte
human Interleukin-5, sequence (P05113 20-134 limits assumed): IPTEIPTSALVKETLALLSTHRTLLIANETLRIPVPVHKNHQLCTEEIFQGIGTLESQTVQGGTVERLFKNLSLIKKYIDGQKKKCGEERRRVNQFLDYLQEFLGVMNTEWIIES
Description: as §1

[6] = biological target: T1, recombinant mature human GDF-15 protein …; experiment: Surface Acoustic Wave (SAW) gold chip biosensor; remark: listed apart in the source
[7] = biological target: T1, recombinant mature human GDF-15 protein …; experiment: Surface Acoustic Wave (SAW) gold chip biosensor; antibody as serum-free CHO culture supernatant

In the case of Rituxumab (control antibody), the Kd [1] is reported as 1120 nM.

B1: murine monoclonal anti-human GDF-15 antibody mAb-B1-23 (antibody, V domains shown)
VH: QVKLQQSGPGILQSSQTLSLTCSFSGFSLSTSGMGVSWIRQPSGKGLEWLAHIYWDDDKRYNPTLKSRLTISKDPSRNQVFLKITSVDTADTATYYCARSSYGAMDYWGQGTSVTVSS
VL: DIVLTQSPKFMSTSVGDRVSVTCKASQNVGTNVAWFLQKPGQSPKALIYSASYRYSGVPDRFTGSGSGTDFTLTISNVQSEDLAEYFCQQYNNFPYTFGGGTKLEIKR
notes: also called anti-human GDF-15 mAb-B1-23; B1-23 anti-GDF-15 antibody (murine, IgG2a)
B1 was tested, and the Kd [2] was 28.8 nM, the Kd [3] was ~0.79 nM and the “factor by which the affinity differs from that for insect-cell GDF-15” value [4] was < 2 fold. For the same molecule, the koff [5] was 0.00043 s⁻¹, the kon [5] was 540000 M⁻¹ s⁻¹ and the binding result (human Interleukin-5) was “no binding (tested: 0.4, 0.8, 3, 12, 49 and 98 nM)”.

B2: chimeric anti-human GDF-15 mAb-B1-23 antibody (antibody, human IgG1, kappa, V domains shown)
VH: B1 VH
VL: B1 VL
notes: Murine variable domains, constant domains of a human IgG1 (trastuzumab backbone); also called Chimeric B1-23 anti-GDF-15 antibody; chimeric B1-23
In the case of B2, the Kd [2] is reported as 14 nM and the “fold higher affinity than the murine B1-23 antibody” value [6] is reported as ~2 fold.

B3: H1L5 humanized B1-23 anti-GDF-15 antibody (antibody, human IgG1, V domains shown)
VH: QITLKESGPTLVKPTQTLTLTCTFSGFSLSTSGMGVSWIRQPPGKGLEWLAHIYWDDDKRYNPTLKSRLTITKDPSKNQVVLTMTNMDPVDTATYYCARSSYGAMDYWGQGTLVTVSS
VL: DIVLTQSPSFLSASVGDRVTITCKASQNVGTNVAWFQQKPGKSPKALIYSASYRYSGVPDRFTGSGSGTEFTLTISSLQPEDFAAYFCQQYNNFPYTFGGGTKLEIKR
notes: Human IgG1 (trastuzumab backbone); also called H1L5 anti-GDF-15 antibody; humanized B1-23-H1L5 antibody
In the case of B3, the “fold higher affinity than the murine B1-23 antibody” value [6] is reported as ~5 fold and the Kd [7] is reported as 5.62 nM.
